B1: E3 ubiquitin-protein ligase Midline-1 (Homo sapiens), O15344 (parent)
chain: METLESELTCPICLELFEDPLLLPCAHSLCFNCAHRILVSHCATNESVESITAFQCPTCRHVITLSQRGLDGLKRNVTLQNIIDRFQKASVSGPNSPSETRRERAFDANTMTSAEKVLCQFCDQDPAQDAVKTCVTCEVSYCDECLKATHPNKKPFTGHRLIEPIPDSHIRGLMCLEHEDEKVNMYCVTDDQLICALCKLVGRHRDHQVAALSERYDKLKQNLESNLTNLIKRNTELETLLAKLIQTCQHVEVNASRQEAKLTEECDLLIEIIQQRRQIIGTKIKEGKVMRLRKLAQQIANCKQCIERSASLISQAEHSLKENDHARFLQTAKNITERVSMATASSQVLIPEINLNDTFDTFALDFSREKKLLECLDYLTAPNPPTIREELCTASYDTITVHWTSDDEFSVVSYELQYTIFTGQANVVSLCNSADSWMIVPNIKQNHYTVHGLQSGTKYIFMVKAINQAGSRSSEPGKLKTNSQPFKLDPKSAHRKLKVSHDNLTVERDESSSKKSHTPERFTSQGSYGVAGNVFIDSGRHYWEVVISGSTWYAIGLAYKSAPKHEWIGKNSASWALCRCNNNWVVRHNSKEIPIEPAPHLRRVGILLDYDNGSIAFYDALNSIHLYTFDVAFAQPVCPTFTVWNKCLTIITGLPIPDHLDCTEQLP
partner: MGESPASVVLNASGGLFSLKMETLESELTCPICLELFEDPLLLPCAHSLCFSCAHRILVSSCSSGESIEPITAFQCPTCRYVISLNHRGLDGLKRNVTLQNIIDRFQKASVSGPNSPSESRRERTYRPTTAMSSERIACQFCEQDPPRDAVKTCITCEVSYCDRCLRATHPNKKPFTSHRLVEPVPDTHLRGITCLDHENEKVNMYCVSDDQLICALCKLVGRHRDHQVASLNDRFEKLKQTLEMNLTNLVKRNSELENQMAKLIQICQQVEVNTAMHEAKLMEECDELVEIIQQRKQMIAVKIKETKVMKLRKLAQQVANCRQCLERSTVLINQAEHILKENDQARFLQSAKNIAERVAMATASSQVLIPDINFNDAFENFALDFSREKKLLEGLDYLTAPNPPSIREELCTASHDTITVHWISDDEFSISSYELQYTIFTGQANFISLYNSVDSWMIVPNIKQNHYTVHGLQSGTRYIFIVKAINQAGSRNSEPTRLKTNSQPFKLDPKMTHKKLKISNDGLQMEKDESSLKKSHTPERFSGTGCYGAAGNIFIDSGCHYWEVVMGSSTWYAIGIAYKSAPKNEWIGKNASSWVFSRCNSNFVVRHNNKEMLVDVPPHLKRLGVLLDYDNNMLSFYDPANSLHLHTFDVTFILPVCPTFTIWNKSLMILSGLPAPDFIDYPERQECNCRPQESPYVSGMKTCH
B2: U4/U6 small nuclear ribonucleoprotein Prp3 (Homo sapiens), O43395 (parent)
chain: MALSKRELDELKPWIEKTVKRVLGFSEPTVVTAALNCVGKGMDKKKAADHLKPFLDDSTLRFVDKLFEAVEEGRSSRHSKSSSDRSRKRELKEVFGDDSEISKESSGVKKRRIPRFEEVEEEPEVIPGPPSESPGMLTKLQIKQMMEAATRQIEERKKQLSFISPPTPQPKTPSSSQPERLPIGNTIQPSQAATFMNDAIEKARKAAELQARIQAQLALKPGLIGNANMVGLANLHAMGIAPPKVELKDQTKPTPLILDEQGRTVDATGKEIELTHRMPTLKANIRAVKREQFKQQLKEKPSEDMESNTFFDPRVSIAPSQRQRRTFKFHDKGKFEKIAQRLRTKAQLEKLQAEISQAARKTGIHTSTRLALIAPKKELKEGDIPEIEWWDSYIIPNGFDLTEENPKREDYFGITNLVEHPAQLNPPVDNDTPVTLGVYLTKKEQKKLRRQTRREAQKELQEKVRLGLMPPPEPKVRISNLMRVLGTEAVQDPTKVEAHVRAQMAKRQKAHEEANAARKLTAEQRKVKKIKKLKEDISQGVHISVYRVRNLSNPAKKFKIEANAGQLYLTGVVVLHKDVNVVVVEGGPKAQKKFKRLMLHRIKWDEQTSNTKGDDDEESDEEAVKKTNKCVLVWEGTAKDRSFGEMKFKQCPTENMAREHFKKHGAEHYWDLALSESVLESTD
partner: B1 partner
B3: U4/U6 small nuclear ribonucleoprotein Prp31 (Homo sapiens), Q8WWY3 (parent)
chain: MSLADELLADLEEAAEEEEGGSYGEEEEEPAIEDVQEETQLDLSGDSVKTIAKLWDSKMFAEIMMKIEEYISKQAKASEVMGPVEAAPEYRVIVDANNLTVEIENELNIIHKFIRDKYSKRFPELESLVPNALDYIRTVKELGNSLDKCKNNENLQQILTNATIMVVSVTASTTQGQQLSEEELERLEEACDMALELNASKHRIYEYVESRMSFIAPNLSIIIGASTAAKIMGVAGGLTNLSKMPACNIMLLGAQRKTLSGFSSTSVLPHTGYIYHSDIVQSLPPDLRRKAARLVAAKCTLAARVDSFHESTEGKVGYELKDEIERKFDKWQEPPPVKQVKPLPAPLDGQRKKRGGRRYRKMKERLGLTEIRKQANRMSFGEIEEDAYQEDLGFSLGHLGKSGSGRVRQTQVNEATKARISKTLQRTLQKQSVVYGGKSTIRDRSSGTASSVAFTPLQGLEIVNPQAAEKKVAEANQKYFSSMAEFLKVKGEKSGLMST
partner: B1 partner
B4: Progranulin (Homo sapiens), P28799 (parent)
chain: MWTLVSWVALTAGLVAGTRCPDGQFCPVACCLDPGGASYSCCRPLLDKWPTTLSRHLGGPCQVDAHCSAGHSCIFTVSGTSSCCPFPEAVACGDGHHCCPRGFHCSADGRSCFQRSGNNSVGAIQCPDSQFECPDFSTCCVMVDGSWGCCPMPQASCCEDRVHCCPHGAFCDLVHTRCITPTGTHPLAKKLPAQRTNRAVALSSSVMCPDARSRCPDGSTCCELPSGKYGCCPMPNATCCSDHLHCCPQDTVCDLIQSKCLSKENATTDLLTKLPAHTVGDVKCDMEVSCPDGYTCCRLQSGAWGCCPFTQAVCCEDHIHCCPAGFTCDTQKGTCEQGPHQVPWMEKAPAHLSLPDPQALKRDVPCDNVSSCPSSDTCCQLTSGEWGCCPIPEAVCCSDHQHCCPQGYTCVAEGQCQRGSEIVAGLEKMPARRASLSHPRDIGCDQHTSCPVGQTCCPSLGGSWACCQLPHAVCCEDRQHCCPAGYTCNVKARSCEKEVVSAQPATFLARSPHVGVKDVECGEGHFCHDNQTCCRDNRQGWACCPYRQGVCCADRRHCCPAGFRCAARGTKCLRREAPRWDAPLRDPALRQLL
partner: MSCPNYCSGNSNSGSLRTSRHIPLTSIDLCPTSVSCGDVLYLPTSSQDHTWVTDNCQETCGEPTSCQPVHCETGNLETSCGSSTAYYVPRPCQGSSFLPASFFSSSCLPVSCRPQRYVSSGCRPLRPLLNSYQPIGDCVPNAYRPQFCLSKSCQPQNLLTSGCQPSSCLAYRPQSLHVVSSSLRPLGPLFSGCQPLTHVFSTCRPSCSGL
B5: Pigment epithelium-derived factor (Homo sapiens), P36955 (parent)
chain: MQALVLLLCIGALLGHSSCQNPASPPEEGSPDPDSTGALVEEEDPFFKVPVNKLAAAVSNFGYDLYRVRSSTSPTTNVLLSPLSVATALSALSLGAEQRTESIIHRALYYDLISSPDIHGTYKELLDTVTAPQKNLKSASRIVFEKKLRIKSSFVAPLEKSYGTRPRVLTGNPRLDLQEINNWVQAQMKGKLARSTKEIPDEISILLLGVAHFKGQWVTKFDSRKTSLEDFYLDEERTVRVPMMSDPKAVLRYGLDSDLSCKIAQLPLTGSMSIIFFLPLKVTQNLTLIEESLTSEFIHDIDRELKTVQAVLTVPKLKLSYEGEVTKSLQEMKLQSLFDSPDFSKITGKPIKLTQVEHRAGFEWNEDGAGTTPSPGLQPAHLTFPLDYHLNQPFIFVLRDTDTGALLFIGKILDPRGP
partner: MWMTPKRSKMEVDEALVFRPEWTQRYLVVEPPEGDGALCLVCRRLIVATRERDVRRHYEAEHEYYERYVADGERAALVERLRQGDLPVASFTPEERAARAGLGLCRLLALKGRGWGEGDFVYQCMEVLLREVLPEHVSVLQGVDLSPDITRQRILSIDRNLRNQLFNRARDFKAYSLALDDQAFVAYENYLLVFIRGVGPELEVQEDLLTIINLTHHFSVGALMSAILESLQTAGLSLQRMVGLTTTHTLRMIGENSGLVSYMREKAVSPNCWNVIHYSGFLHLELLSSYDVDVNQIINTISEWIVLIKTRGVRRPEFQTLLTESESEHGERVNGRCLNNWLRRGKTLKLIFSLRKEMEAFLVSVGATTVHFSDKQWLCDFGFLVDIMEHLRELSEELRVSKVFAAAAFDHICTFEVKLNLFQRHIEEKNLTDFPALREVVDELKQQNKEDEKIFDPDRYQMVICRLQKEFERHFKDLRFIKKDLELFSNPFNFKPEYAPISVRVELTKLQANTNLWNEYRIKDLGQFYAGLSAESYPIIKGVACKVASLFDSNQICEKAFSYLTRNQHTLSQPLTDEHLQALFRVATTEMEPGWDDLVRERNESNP

Variants of: B1
Settings: with MID2, Q9UJV3-2

Row | Variant | effect of a mutation on the interaction
1 | L626P | with no effect

Variants of: B2
Settings: with MID2, Q9UJV3-2

Row | Variant | effect of a mutation on the interaction
2 | A489D | with no effect
3 | P493S | with no effect
4 | T494M | with no effect

Variants of: B3
Settings: with MID2, Q9UJV3-2

Row | Variant | effect of a mutation on the interaction
5 | L107V | with no effect

Variants of: B4
Settings: with kr261_human KRTAP26-1, Q6PEX3

Row | Variant | effect of a mutation on the interaction
6 | A9D | disrupting interaction strength
7 | P248L | with no effect
8 | R432C | disrupting interaction strength
9 | P451L | with no effect

Variants of: B5
Settings: with epmip_human EPM2AIP1, Q7L775

Row | Variant | effect of a mutation on the interaction
10 | T72M | with no effect

Reference: IntAct's records for PubMed 25910212
